Laboratory results from article PMC6636998.

Assays:
[1] = target: pyruvate kinase M2 (PKM2), wild type, purified recombinant human (human) (UniProt P14618); test: native MS; nano-ESI, 10 µM PKM2 in 200 mM ammonium acetate pH 6.8, no FBP added (PKM2^apo*, <25% co-purified FBP); also with 300 µM Phe alone (fewer tetramers, more dimers)
[2] = target: pyruvate kinase M2 (PKM2), wild type, purified recombinant human (human) (UniProt P14618); test: native MS; time course over 20 min, 10 µM PKM2 with 5 µM FBP and 400 µM Phe; ratio of the tetramer 32+ peak to the dimer 22+ peak, two-state sigmoidal model; dimers and monomers to tetramer

Sequence of pyruvate kinase M2 (PKM2), wild type, purified recombinant human, P14618-1 1-531 (enzyme; other documents disagree on this pair) (P14618 whole entry): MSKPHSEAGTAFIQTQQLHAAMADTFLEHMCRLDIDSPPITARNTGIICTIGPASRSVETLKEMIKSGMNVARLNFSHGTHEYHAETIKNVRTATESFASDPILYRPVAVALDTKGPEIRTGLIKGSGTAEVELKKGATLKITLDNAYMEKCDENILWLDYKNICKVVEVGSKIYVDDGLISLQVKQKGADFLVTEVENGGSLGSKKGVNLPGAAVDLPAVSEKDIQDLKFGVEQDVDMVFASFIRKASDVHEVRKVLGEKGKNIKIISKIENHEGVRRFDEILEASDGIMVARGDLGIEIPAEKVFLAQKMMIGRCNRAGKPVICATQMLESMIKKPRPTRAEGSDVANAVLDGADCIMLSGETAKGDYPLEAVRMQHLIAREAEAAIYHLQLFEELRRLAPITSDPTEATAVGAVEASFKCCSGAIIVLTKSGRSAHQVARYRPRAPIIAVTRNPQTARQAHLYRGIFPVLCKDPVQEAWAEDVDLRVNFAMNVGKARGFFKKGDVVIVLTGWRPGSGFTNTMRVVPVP

## pyruvate kinase M2 (PKM2), wild type, purified recombinant human, P14618-1 1-531 (enzyme; other documents disagree on this pair)
[1]
  stoichiometry N: 2
[2]
  ktet (kinetics of tetramerisation with half-stoichiometric FBP and Phe): 812 s
